# Test results from patent US20080063657A1 (VAXINNATE, published 2008).
# B1: STF2.EIII+ fusion protein (other)
# chain: MAQVINTNSLSLLTQNNLNKSQSALGTAIERLSSGLRINSAKDDAAGQAIANRFTANIKGLTQASRNANDGISIAQTTEGALNEINNNLQRVRELAVQSANSTNSQSDLDSIQAEITQRLNEIDRVSGQTQFNGVKVLAQDNTLTIQVGANDGETIDIDLKQINSQTLGLDSLNVQKAYDVKDTAVTTKAYANNGTTLDVSGLDDAAIKAATGGTNGTASVTGGAVKFDADNNKYFVTIGGFTGADAAKNGDYEVNVATDGTVTLAAGATKTTMPAGATTKTEVQELKDTPAVVSADAKNALIAGGVDATDANGAELVKMSYTDKNGKTIEGGYALKAGDKYYAADYDEATGAIKAKTTSYTAADGTTKTAANQLGGVDGKTEVVTIDGKTYNASKAAGHDFKAQPELAEAAAKTTENPLQKIDAALAQVDALRSDLGAVQNRFNSAITNLGNTVNNLSEARSRIEDSDYATEVSNMSRAQILQQAGTSVLAQANQVPQNVLSLLRKGNSKLEGQLEFPRTSMEKLQLKGTTYGVCSKAFKFLGTPADTGHGTVVLELQYTGTDGPCKVPISSVASLNDLTPVGRLVTVNPFVSVATANAKVLIELEPPFGDSYIVVGRGEQQINHHWHKSGSSIGK
# Target: TLR5 (UniProt O60602 21-858)
# Sequence (O60602 21-858 limits assumed): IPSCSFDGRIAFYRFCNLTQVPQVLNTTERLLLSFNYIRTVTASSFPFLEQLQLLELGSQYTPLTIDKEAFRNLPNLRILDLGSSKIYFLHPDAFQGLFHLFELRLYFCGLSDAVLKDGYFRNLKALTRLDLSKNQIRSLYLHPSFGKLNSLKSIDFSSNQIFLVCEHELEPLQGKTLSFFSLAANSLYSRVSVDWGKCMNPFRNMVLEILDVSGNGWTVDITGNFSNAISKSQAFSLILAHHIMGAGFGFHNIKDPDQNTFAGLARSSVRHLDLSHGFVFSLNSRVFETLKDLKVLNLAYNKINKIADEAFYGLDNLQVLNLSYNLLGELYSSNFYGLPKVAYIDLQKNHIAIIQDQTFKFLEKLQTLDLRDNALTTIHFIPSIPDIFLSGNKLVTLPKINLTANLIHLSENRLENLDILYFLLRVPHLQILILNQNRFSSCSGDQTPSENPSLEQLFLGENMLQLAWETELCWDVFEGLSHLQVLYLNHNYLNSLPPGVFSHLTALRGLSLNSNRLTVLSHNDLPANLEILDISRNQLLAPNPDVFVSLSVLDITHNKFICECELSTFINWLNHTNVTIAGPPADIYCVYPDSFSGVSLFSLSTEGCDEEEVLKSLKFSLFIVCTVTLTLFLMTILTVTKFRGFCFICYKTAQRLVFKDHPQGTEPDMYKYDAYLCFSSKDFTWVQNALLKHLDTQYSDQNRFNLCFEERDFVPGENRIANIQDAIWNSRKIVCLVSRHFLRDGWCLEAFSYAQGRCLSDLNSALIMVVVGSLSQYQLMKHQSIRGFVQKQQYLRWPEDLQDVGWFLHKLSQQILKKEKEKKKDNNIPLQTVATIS
# Assay: cell-based or functional assay
binder,measurement,value
B1,"TLR-5 EC50 (IL-8 in supernatant of HEK293 cells, ELISA), batch 052",> 5 µg/mL
same,"TLR-5 EC50 (IL-8 in supernatant of HEK293 cells, ELISA), batch 054",1.2 µg/mL
same,"TLR-5 EC50 (IL-8 in supernatant of HEK293 cells, ELISA), batch 057",0.198 µg/mL
